# Laboratory results: article PMC12719470 (2025)
# T1: TNFR2-His protein (UniProt P20333 23-461)
# T1 chain: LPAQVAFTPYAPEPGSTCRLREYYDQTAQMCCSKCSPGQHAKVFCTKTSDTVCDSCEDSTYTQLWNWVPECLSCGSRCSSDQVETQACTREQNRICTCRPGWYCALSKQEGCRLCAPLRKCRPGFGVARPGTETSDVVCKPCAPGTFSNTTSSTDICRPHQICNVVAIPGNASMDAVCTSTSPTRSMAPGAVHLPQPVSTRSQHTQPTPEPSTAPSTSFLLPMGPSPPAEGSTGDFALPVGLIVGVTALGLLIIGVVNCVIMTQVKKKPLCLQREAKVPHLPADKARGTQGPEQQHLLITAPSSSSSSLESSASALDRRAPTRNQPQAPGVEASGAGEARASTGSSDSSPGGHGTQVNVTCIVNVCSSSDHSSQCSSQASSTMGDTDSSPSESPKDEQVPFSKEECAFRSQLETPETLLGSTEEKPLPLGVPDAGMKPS
# Target: T1, TNFR2-His protein
# Assay: BLI
binder,measurement,value
Nanobody-161 IgG1 Y105G (Fc fusion) EVQLVESGGGLVQPGGSLRLSCAASGSIRFINDMGWYRQAPGKGLELVAAIGRGGGSTNYADSVKGRFTISRDNAKNTLYLQMNSLRAEDTAVYYCHAEISQLGGAFRDYWGQGTLVTVSS,Kd,214 µM
